According to patent US20200223906A1 (Adimab, published 2020):
Numbering of substitutions follows the chain as printed.

B1: ADI-18950 (antibody, V domains shown)
VH: EVQLVESGPRLVRPSETLSLTCTVSGGFIKTSSYYWGWIRQPPGKGLEWIGSIYYAGTTYYNPSLQSRVTMSVDTSNNQFSLKLNSVTAADTAVYYCATAWTFDHWGQGTLVTVSS
VL: EIVLTQSPATLSLSPGERATLSCRASQSLSNYLAWYQQKPGQAPRLLIYDASNRATGIPARFSGSGSGTDFTLTISSLEPEDFAVYYCQLRGHWPPTITFGQGTRLEIK
notes: full-length IgG from yeast
B2: ADI-18888 (antibody, V domains shown)
VH: QVQLVESGGGVVQPGRSLRLSCVASGFSFSMHGMHWVRQAPGKGLEWVTAIWYDGSNKYYADSVKGRFTISRDNSRNTLYLQMNSLRAEDTAVYYCARDHASTPYYMDVWGKGTTVTVSS
VL: ETTLTQSPGTLSLSPGESATLSCRTSQRISSTYLAWYRQKPGQAPRLLMYGASSRATGIPDRFSGSGSGTDFTLTISSLEPEDFALYYCQQYGSFPWTFGQGTKLEIK
notes: full-length IgG from yeast; also called Antibody Number 243; Ab # 243
B3: ADI-18906 (antibody, V domains shown)
VH: B2 VH with Q1E
VL: B2 VL with L105V
notes: full-length IgG from yeast
B4: ADI-18951 (antibody, V domains shown)
VH: QVQLVQSGGGLVQPGGSLRLSCAASGFAFSDYTMSWVRQAPGKGLEWVSSVSGTGGTSYYADSVNGRFAISRENSKNTLFLQMDSLRAEDTATYYCAKDGLRDVSRVYYIDVWGKGTTVTVSS
VL: QPVLTQPASVSGSPGQSITISCTGTSRDIGSHDSVSWYQQKPGKAPKLIIYAVRNRPSGLSNRFSGSKSGNTASLTISGLQTEDEGDYYCSSYRNGNALGVFGTGTKVTVL
notes: full-length IgG from yeast
B5: ADI-18952 (antibody, V domains shown)
VH: B4 VH with Q6E, D31N, T33A, S58T, K76R, F80Y, A88V, V104L, T117A
VL: B4 VL with P2S, S34Y, K41H, A52G, R54N, A98T, V108L
notes: full-length IgG from yeast
B6: ADI-19009 (antibody, V domains shown)
VH: QVQLVQSGAEVKRPGSSVKVSCKASGGTFRGYHISWVRQAPGQGLEWMGGIIHLFGTVSYAPKFQGRVTITADASTGTAHMELSSLTSDDTAIYYCARDAYEVWTGSYLPPFDYWGQGTLVTVSS
VL: DIVMTQTPGTLSLSPGERVTLSCRASQTVTSSYLAWYQQKPGQAPRLLIYGAFTRATGIPDRFSGSGSGTDFTLTISRLEPEDFAVYYCQQYGSSFLTFGGGTKLEIK
B7: ADI-18997 (antibody, V domains shown)
VH: QVQLQQWGAGLLKPSETLSLTCAVSGGYFINDNWSWIRQSPGKGLEWIGEISHSGSTNYNPSLKSRLTISVDTSRQQFSLKLSSVTAADSGVYYCARVHPSYDFGWRFFDFWGQGTLVTVSS
VL: ETTLTQSPATLSVSPGDTATLSCRASQTISSNLAWYQQKPGQPPSLLIYGASNRATGIPDRFRGSGSGTEFTLTISSLQSEDFAVYYCQQYAYWPPYTFGQGTKVEIK
B8: ADI-19008 (antibody, V domains shown)
VH: EVQLVESGGGVVQPGRSLRLSCVASGFSFSAYGMHWVRQVPTKGLEWVAVISYDGRDIYYTDSVKGRFTISRDNSKNMLYLQMNSLRPEDRAVYYCARDPSLGYNNHYFDYWGQGTLVTVSS
VL: EIVLTQSPATLSLSPGETATLSCRASQSVTGNLAWYQQKPGQAPRLLIYAASNRATGIPARFSGSGSGTDFTLTISSLEPEDFAVYFCQQRSNWPPMYSFGQGTKLEIK
B9: ADI-19005 (antibody, V domains shown)
VH: QVQLVQSGAEVKKPGASVRVSCKASGYTFTDYFMNWVRQAPGGGLEWMGWINPLSGVTKYAQQFQGSVTMTTDTSITTGYMELRSLRVDDTAVYYCASQSSPYTPGAMGVWGQGTTVTVSS
VL: DIRMTQSPSSLSASVGDRVTITCRTSQSVSGYLSWYQQKPGKAPKLLIYAASNLYSGVPSRFSGSGSGTDFTLTITSLQPEDFATYFCQLNSGALFTFGPGTKVEIK
B10: ADI-19017 (antibody, V domains shown)
VH: B9 VH with S21T
VL: SYELIQLPSVSVSPGQTARITCSGDALPKQYAYWYQQKPGQAPVLVIYKDSERPSGIPERFSGSSSGTTVTLTISGVQAEDEADYYCQSADSSGTYPVVFGGGTKLTVL
B11: ADI-19011 (antibody, V domains shown)
VH: EVQLVESGGGVVQPGGSLRLSCAGSGFAFGSFAMHWVRQAPGKGLEWVAVISFDGKNTKYADSVKGRFTTSRDNSRNTLYLQMDSLRGDDTAIYYCATIRGIVAGLCDNWGQGTLVTVSS
VL: QPVLTQSSSDSASLGASVKLTCTLSSGHRNYIIAWHQQQPGKAPRFLMKVEGSGSFTMGSGVPDRFSGSSSGADRYLTISNLQSEDEADYYCEAWDFNTGGVFGGGTQLTVL
B12: ADI-19006 (antibody, V domains shown)
VH: EVQLVESGGGLVKPGESVKLSCAASGFTITDSYMAWIRQSPGKGLEWLAYISSTSLFTDYTDSVKGRFIITRDNAENSLYLQMTSLTPADTGVYFCARAKTSYYFYALDVWGPGTLVTVSS
VL: ETTLTQSPGTLSLSPGERATLSCRASQSVNNNYLAWFQHKPGQAPRLLIYNASNRAAGIPDRFSGSGSGTDFTLTISKLEPGDSAVYYCQRYGNSWPFGQGTKVEIK
B13: ADI-19002 (antibody, V domains shown)
VH: EVQLVESGPGLVKPSETLSLTCTVSGGSVSGHYWSWIRQFPGKELEWIGHIYYIGTTNYNPSLKSRVIISLDTSKNQLSLKLSSVTAADTAVYYCARQFGYDKNTLSRLDFDYWGQGTLVTVSS
VL: DIQMTQSPSSLSASVRDRVTITCRASQSISSYLNWYQQRPGKAPKLLIYSAFSLHSGVPSRFSGSGSETEFTLTISSLQPDDFATYYCQQSYSIPWTFGQGTKVEIK
B14: ADI-18996 (antibody, V domains shown)
VH: QVQLVQSGAEVKRPGASVKVSCKASEYAFTAHYLHWVRQAPDQGLEWMGWISPKSGGTNYAQKFHGRVSMTSDTSISTVYMELSSLTSDDTAVYYCARSSLVGASPNFDFWGQGTLVTVSS
VL: QSVVTQPPSVSAAPGQRVTISCSGSSSNIGNNYVSWYQQLPGSTPKVLIYDNNQRPSGIPDRFSGSKSGTSATLAISGLQTGDEAVYYCGTWDASLSAAMVFGGGTKLTVL
B15: ADI-19010 (antibody, V domains shown)
VH: EVQLVESGGGLVKPGGSLRLSCAASGFTFSSYSMNWVRQAPGKGLEWVSSISSSSSYIYYADSVKGRFTISRDNAKNSLYLQMNSLRAEDTAVYYCARDVQYSGYDSGYYFDYWGQGTLVTVSS
VL: QPVLTQPPSVSGAPGQRVTISCTGSSSNIGAGYDVHWYQQLPGTAPKLLIYGNSNRPSGVPDRFSGSKSGTSASLAITGLQAEDEADYYCQSYDSSLSALYVFGTGTKVTVL
B16: ADI-19016 (antibody, V domains shown)
VH: QVQLVESGGGLVKPGGSLRLSCVASGFTFSSYAMNWVRQAPGKGLDWVSSISAGSNFIDDADSVKGRFTISRDNARNSLFLQMNSLRAEDTAVYYCARIGYSSAHHYQYYMDVWGTGTTVTVSS
VL: B15 VL with P2S, Q40D, S54T, T71A, A76V, S95K, A99G, L100G
B17: ADI-19003 (antibody, V domains shown)
VH: QVQLQESGPGLVKPSETLSLTCSVSGGSITNVNYYWGWIRQPPGKGLEWIGSIYYNGNTYYNPSLQSRVTMSVDTSKNHFSLRLTSVTAADTAVYFCAREGPNWELLNAFDIWGQGTTVTVSS
VL: SYELTQPPSVSVAPGQTARITCGGNNIGSKNVHWYQQKPGQAPVLVVYEDTHRPSGIPERFSGSNSGNTATLTISRVEAGDEADYYCQVWDTSSDHVVFGGGTKLTVL
B18: ADI-18994 (antibody, V domains shown)
VH: QVQLVQSGAEVKKPGASVKVSCKASGYTFTNYGFSWVRQAPGQGLEWMGWILTHNGYTNYAQKFQDRVTMKTDTSTSTVYMELRSLRSVDTAVYYCARIGHVTAVAGAPPDYWGQGTLVTVSS
VL: QPVLTQPASVSGYQGQSITISCSGTSSDVGTYNLVSWYQQHPGKAPELMIYEGSKRPSGVSDRFSGSKSGNTASLTISGLQAEDEADYYCCSYVAGSTSVFGGGTKLTVL
B19: ADI-19004 (antibody, V domains shown)
VH: QVQLVQSGAEVKKPGASVKVSCKTSGYTFSHFGVTWIRQAPGQGLEWLGWISAYNGNTDSADKLQGRLTMTTDTSTNTAYMELRSLRSDDTAVYYCARDPPASAAAMLDYWGQGTLVTVSS
VL: DIQMTQSPLSLAVTLGQPASISCRSSQGLEYTDGNTYLSWFQQRPGQSPRRLIYKVSNRDSGVPDRFSGSGAGTDFTLRISRVEAEDVGVYYCMQGTHGRGISFGPGTKVDIK

target: RSV F protein of subtype B (18537) on recombinant mKate-RSV virus (Respiratory syncytial virus subtype B …, UniProt P13843 26-574); assay: cell-based or functional assay

| Binder | Neut IC50 (µg/ml) subtype B [µg/mL] |
| --- | --- |
| B1 | > 10 |
| B2 | > 10 |
| B3 | > 10 |
| B4 | > 10 |
| B5 | 2.75 |

target: RSV F protein of subtype B (18537) on recombinant mKate-RSV (respiratory syncytial virus subtype B …, UniProt P13843 26-574); assay: cell-based or functional assay

| Binder | Neut IC50 subtype B [µg/mL] |
| --- | --- |
| B6 | 0.066 |
| B7 | > 10 |
| B8 | > 10 |
| B9 | 0.11 |
| B10 | 0.795 |
| B11 | 6.24 |
| B12 | 5.06 |
| B13 | 4.51 |
| B14 | > 10 |
| B15 | 0.65 |
| B16 | 0.092 |
| B17 | 0.125 |
| B18 | 0.108 |
| B19 | 0.128 |

target: RSV F protein of subtype A (strain A2) on recombinant mKate-RSV (respiratory syncytial virus subtype A …, UniProt P03420 26-574); assay: cell-based or functional assay

| Binder | Neut IC50 subtype A [µg/mL] |
| --- | --- |
| B6 | 0.062 |
| B7 | > 10 |
| B8 | 8.29 |
| B9 | 0.041 |
| B10 | 1.56 |
| B11 | > 10 |
| B12 | 4.89 |
| B13 | 2.89 |
| B14 | > 10 |
| B15 | > 10 |
| B16 | 0.052 |
| B17 | 0.047 |
| B18 | 0.047 |
| B19 | 0.02 |

target: RSV F protein of subtype A (strain A2) on recombinant mKate-RSV virus (Respiratory syncytial virus subtype A …, UniProt P03420 26-574); assay: cell-based or functional assay

| Binder | Neut IC50 (µg/ml) subtype A [µg/mL] |
| --- | --- |
| B1 | > 10 |
| B2 | > 10 |
| B3 | > 10 |
| B4 | 3.4 |
| B5 | 1.59 |

target: T1, RSV F subtype B, furin-cleaved ectodomain stabilized in the prefusion conformation (DS-Cav1) (Respiratory syncytial virus subtype B); assay: BLI, IgG on AHQ sensor, 100 nM antigen
T1 construct: extracellular domain; Trimeric soluble antigen; also called Prefusion subtype B

| Binder | Kd [nM] |
| --- | --- |
| B1 | 4.18 |
| B4 | 5.35 |
| B5 | 1.01 |

target: T2, RSV F subtype B, furin-cleaved ectodomain stabilized in the postfusion conformation (F ΔFP) (Respiratory syncytial virus subtype B); assay: BLI, IgG on AHQ sensor, 100 nM antigen
T2 construct: extracellular domain; Trimeric soluble antigen; also called Postfusion subtype B

| Binder | Kd [nM] |
| --- | --- |
| B1 | 0.385 |
| B2 | 1.16 |
| B3 | 1.1 |
| B4 | 1.13 |
| B5 | 0.633 |
